Key:
Experiment in all cases: microbe, parasite or virus in culture
[1] = test system: S. haemolyticus 4072; conditions: 4072; for MIC: individual component
Experimental: (§1) Growth inhibition assays were performed in 96-well microtiter plates as described previously (Chi and Holo, 2018, supra). Briefly, 135 μl of TSB were dispensed in each well of a microtiter plate (according to the number of bacterial strains tested) except in the wells of the first row. The antimicrobials were diluted in TSB to working concentrations in a final volume of 285 μl and dispensed in the wells of the first row. The working concentrations were 100 μg/μl for garvicin KS, 10 μg/μl for micrococcin P1 and 1 mg/ml for penicillin G. From the first row, 150 μl of the antimicrobials were then serially diluted (two-fold dilutions) in a sequential fashion until the last row of the plate. Finally, 15 μl of a fresh O/N culture of each strain were added in the appropriate wells to reach a final volume of 150 μl in each well. The plates were then incubated at 37° C. for 24 h. The growth inhibition was expressed as minimum inhibitory concentration (MIC50), which refers to the minimum concentration of the antimicrobial needed to reduce at least 50% of the microbial growth compared to the untreated control. The MIC50 was assessed by optical density readings at 600 nm (O.D.600).
(§2) Synergistic interactions between antimicrobials were determined using the fractional inhibition concentration (FIC). The FIC values were calculated as follows: the sum of the FIC =FICa+FICb+FICc, where the FICa means MIC of A in combination/MIC of A alone, FICb means MIC of B in combination/MIC of B, and FICc means MIC of C in combination/MIC of C alone. Effects were considered as synergistic if FIC was ≤0.5 for two components mixture and ≤0.75 for three components mixture.
(§3) Bacteriocins and antimicrobial assays. […] These bacteriocins were all solubilized in 0.1% (vol/vol) trifluoracetic acid (TFA; Sigma-Aldrich). […] Cell growth inhibition assays and antimicrobial synergy determination was performed in line with Example 1.
(§4) To investigate whether there was synergy between the three bacteriocins (K1-EJ, GarKS and MP1), a checkboard antimicrobial assay was performed. The selected strains were treated for 5, 24 and 48 h with a range of concentrations of K1-EJ, GarKS and MP1 alone or in different combinations.

[2] = test system: S. haemolyticus 4068; conditions: 4068; for MIC: individual component
Experimental: as §1, §2, §3, §4

[3] = test system: S. haemolyticus 4069; conditions: 4069; for MIC: individual component
Experimental: as §1, §2, §3, §4

[4] = test system: S. haemolyticus 4073; conditions: 4073; for MIC: individual component
Experimental: as §1, §2, §3, §4

[5] = test system: S. haemolyticus 4070; conditions: 4070; for MIC: individual component
Experimental: as §1, §2, §3, §4

[6] = test system: S. haemolyticus 4071; conditions: 4071; for MIC: individual component
Experimental: as §1, §2, §3, §4

B1: Garvicin KS: three-peptide leaderless bacteriocin (GarA, GarB, GarC; SEQ ID NO:6-8), peptides synthesized (peptide, listed as Lactococcus garvieae)
chain 1: MGAIIKAGAKIVGKGVLGGGASWLGWNVGEKIWK
chain 2: MGAIIKAGAKIIGKGLLGGAAGGATYGGLKKIFG
chain 3: MGAIIKAGAKIVGKGALTGGGVWLAEKLFGGK
MIC of the component in combination ([1]; 5 h, GarKS + MP1): 0.73 µg/mL
MIC of the component in combination ([1]; 5 h, K1-EJ + GarKS): 1.5 µg/mL
MIC of the component in combination ([1]; 5 h, K1-EJ + GarKS + MP1): 0.68 µg/mL
MIC ([1]; 5 h): 23.6 µg/mL
MIC of the component in combination ([1]; 24 h, GarKS + MP1): 1.6 µg/mL
MIC of the component in combination ([1]; 24 h, K1-EJ + GarKS): 12 µg/mL
MIC of the component in combination ([1]; 24 h, K1-EJ + GarKS + MP1): 1.6 µg/mL
MIC ([1]; 24 h): 49 µg/mL
MIC of the component in combination ([1]; 48 h, GarKS + MP1): 3.1 µg/mL
MIC of the component in combination ([1]; 48 h, K1-EJ + GarKS): 13 µg/mL
MIC of the component in combination ([1]; 48 h, K1-EJ + GarKS + MP1): 5.8 µg/mL
MIC ([1]; 48 h): 52 µg/mL
MIC of the component in combination ([2]; 5 h, GarKS + MP1): 0.2 µg/mL
MIC of the component in combination ([2]; 5 h, K1-EJ + GarKS): 0.83 µg/mL
MIC of the component in combination ([2]; 5 h, K1-EJ + GarKS + MP1): 0.32 µg/mL
MIC ([2]; 5 h): 6.5 µg/mL
MIC of the component in combination ([2]; 24 h, GarKS + MP1): 0.32 µg/mL
MIC of the component in combination ([2]; 24 h, K1-EJ + GarKS): 3.1 µg/mL
MIC of the component in combination ([2]; 24 h, K1-EJ + GarKS + MP1): 0.78 µg/mL
MIC ([2]; 24 h): 24 µg/mL
MIC of the component in combination ([2]; 48 h, GarKS + MP1): 0.68 µg/mL
MIC of the component in combination ([2]; 48 h, K1-EJ + GarKS): 6 µg/mL
MIC of the component in combination ([2]; 48 h, K1-EJ + GarKS + MP1): 2.8 µg/mL
MIC ([2]; 48 h): 25 µg/mL
MIC of the component in combination ([3]; 5 h, GarKS + MP1): 1.6 µg/mL
MIC of the component in combination ([3]; 5 h, K1-EJ + GarKS): 1.4 µg/mL
MIC of the component in combination ([3]; 5 h, K1-EJ + GarKS + MP1): 0.68 µg/mL
MIC ([3]; 5 h): 3.3 µg/mL
MIC of the component in combination ([3]; 24 h, GarKS + MP1): 25 µg/mL
MIC of the component in combination ([3]; 24 h, K1-EJ + GarKS): 6 µg/mL
MIC of the component in combination ([3]; 24 h, K1-EJ + GarKS + MP1): 3.3 µg/mL
MIC ([3]; 24 h): 13 µg/mL
MIC of the component in combination ([3]; 48 h, GarKS + MP1): 50 µg/mL
MIC of the component in combination ([3]; 48 h, K1-EJ + GarKS): 6.5 µg/mL
MIC of the component in combination ([3]; 48 h, K1-EJ + GarKS + MP1): 5.8 µg/mL
MIC ([3]; 48 h): 26 µg/mL
MIC of the component in combination ([4]; 5 h, GarKS + MP1): 0.2 µg/mL
MIC of the component in combination ([4]; 5 h, K1-EJ + GarKS): 1.7 µg/mL
MIC of the component in combination ([4]; 5 h, K1-EJ + GarKS + MP1): 0.33 µg/mL
MIC ([4]; 5 h): 12.5 µg/mL
MIC of the component in combination ([4]; 24 h, GarKS + MP1): 0.73 µg/mL
MIC of the component in combination ([4]; 24 h, K1-EJ + GarKS): 6.3 µg/mL
MIC of the component in combination ([4]; 24 h, K1-EJ + GarKS + MP1): 0.78 µg/mL
MIC ([4]; 24 h): 51 µg/mL
MIC of the component in combination ([4]; 48 h, GarKS + MP1): 0.83 µg/mL
MIC of the component in combination ([4]; 48 h, K1-EJ + GarKS): 12 µg/mL
MIC of the component in combination ([4]; 48 h, K1-EJ + GarKS + MP1): 1.6 µg/mL
MIC ([4]; 48 h): 51 µg/mL
MIC of the component in combination ([5]; 5 h, GarKS + MP1): 0.2 µg/mL
MIC of the component in combination ([5]; 5 h, K1-EJ + GarKS): 0.72 µg/mL
MIC of the component in combination ([5]; 5 h, K1-EJ + GarKS + MP1): 0.32 µg/mL
MIC ([5]; 5 h): 12 µg/mL
MIC of the component in combination ([5]; 24 h, GarKS + MP1): 3.3 µg/mL
MIC of the component in combination ([5]; 24 h, K1-EJ + GarKS): 3.3 µg/mL
MIC of the component in combination ([5]; 24 h, K1-EJ + GarKS + MP1): 2.8 µg/mL
MIC ([5]; 24 h): 48 µg/mL
MIC of the component in combination ([5]; 48 h, GarKS + MP1): 6.3 µg/mL
MIC of the component in combination ([5]; 48 h, K1-EJ + GarKS): 6.3 µg/mL
MIC of the component in combination ([5]; 48 h, K1-EJ + GarKS + MP1): 5.8 µg/mL
MIC ([5]; 48 h): 51 µg/mL
MIC of the component in combination ([6]; 5 h, GarKS + MP1): 0.68 µg/mL
MIC of the component in combination ([6]; 5 h, K1-EJ + GarKS): 1.6 µg/mL
MIC of the component in combination ([6]; 5 h, K1-EJ + GarKS + MP1): 0.72 µg/mL
MIC ([6]; 5 h): 12.5 µg/mL
MIC of the component in combination ([6]; 24 h, GarKS + MP1): 6.3 µg/mL
MIC of the component in combination ([6]; 24 h, K1-EJ + GarKS): 12 µg/mL
MIC of the component in combination ([6]; 24 h, K1-EJ + GarKS + MP1): 1.6 µg/mL
MIC ([6]; 24 h): 51 µg/mL
MIC of the component in combination ([6]; 48 h, GarKS + MP1): 6.5 µg/mL
MIC of the component in combination ([6]; 48 h, K1-EJ + GarKS): 24 µg/mL
MIC of the component in combination ([6]; 48 h, K1-EJ + GarKS + MP1): 3.3 µg/mL
MIC ([6]; 48 h): 100 µg/mL
